Data on one molecule can be found in PMC9844859, “Appia: Simpler chromatography analysis and visualization” (PLOS ONE, 2023).

This assay concerns the target T1, Human NEDD4-2-GFP (human, UniProt Q96PU5 1-975).
T1 construct: NEDD4-2 (E3 ubiquitin ligase NEDD4-like), human; also called NEDD4-2-GFP fusion protein; source: Sf9 cells (MOI of 5, 48 hours), purified (TALON resin, SEC)
T1 sequence (looked up): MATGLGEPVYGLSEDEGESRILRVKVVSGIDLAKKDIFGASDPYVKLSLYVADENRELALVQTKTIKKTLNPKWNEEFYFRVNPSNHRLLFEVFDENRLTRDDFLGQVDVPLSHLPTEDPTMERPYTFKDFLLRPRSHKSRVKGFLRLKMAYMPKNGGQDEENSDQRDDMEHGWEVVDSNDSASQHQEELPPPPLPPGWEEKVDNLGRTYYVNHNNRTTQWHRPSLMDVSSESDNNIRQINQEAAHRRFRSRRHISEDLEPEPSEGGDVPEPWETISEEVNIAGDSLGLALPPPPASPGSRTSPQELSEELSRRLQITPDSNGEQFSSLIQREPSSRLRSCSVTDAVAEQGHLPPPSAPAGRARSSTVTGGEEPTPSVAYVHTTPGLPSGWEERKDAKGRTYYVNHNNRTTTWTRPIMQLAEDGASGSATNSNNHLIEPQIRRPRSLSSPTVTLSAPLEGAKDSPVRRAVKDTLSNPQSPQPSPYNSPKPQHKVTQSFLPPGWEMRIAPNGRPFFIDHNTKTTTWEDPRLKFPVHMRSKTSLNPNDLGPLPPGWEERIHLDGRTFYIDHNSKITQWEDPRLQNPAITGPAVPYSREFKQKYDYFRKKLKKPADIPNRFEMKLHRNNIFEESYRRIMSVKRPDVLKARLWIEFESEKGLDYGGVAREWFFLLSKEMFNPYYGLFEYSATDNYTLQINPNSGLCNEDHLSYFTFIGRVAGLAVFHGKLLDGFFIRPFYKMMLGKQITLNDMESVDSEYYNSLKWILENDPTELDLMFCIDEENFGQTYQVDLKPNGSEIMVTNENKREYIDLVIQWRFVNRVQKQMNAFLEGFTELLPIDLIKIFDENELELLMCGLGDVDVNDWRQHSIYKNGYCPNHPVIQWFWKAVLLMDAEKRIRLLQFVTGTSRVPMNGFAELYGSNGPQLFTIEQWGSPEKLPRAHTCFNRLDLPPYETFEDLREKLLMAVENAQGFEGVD
The experiment in a line: SEC; fluorescence-detection SEC (FSEC), GFP channel; NEDD4-2-GFP held at 71.2 nM, ENaC αβγ added in equal amounts, five-fold or ten-fold excess; Superose 6 Increase 10/300; TBS (20 mM Tris pH 7.5, 200 mM NaCl) + 0.5 mM DDM. As to conditions: both partners purified. On the technique in general: Size exclusion chromatography separates by hydrodynamic size, large species first.

B1: triheteromeric αβγ Epithelial Sodium Channel (ENaC αβγ) (complex)
chain 1: MEGNKLEEQDSSPPQSTPGLMKGNKREEQGLGPEPAAPQQPTAEEEALIEFHRSYRELFEFFCNNTTIHGAIRLVCSQHNRMKTAFWAVLWLCTFGMMYWQFGLLFGEYFSYPVSLNINLNSDKLVFPAVTICTLNPYRYPEIKEELEELDRITEQTLFDLYKYSSFTTLVAGSRSRRDLRGTLPHPLQRLRVPPPPHGARRARSVASSLRDNNPQVDWKDWKIGFQLCNQNKSDCFYQTYSSGVDAVREWYRFHYINILSRLPETLPSLEEDTLGNFIFACRFNQVSCNQANYSHFHHPMYGNCYTFNDKNNSNLWMSSMPGINNGLSLMLRAEQNDFIPLLSTVTGARVMVHGQDEPAFMDDGGFNLRPGVETSISMRKETLDRLGGDYGDCTKNGSDVPVENLYPSKYTQQVCIHSCFQESMIKECGCAYIFYPRPQNVEYCDYRKHSSWGYCYYKLQVDFSSDHLGCFTKCRKPCSVTSYQLSAGYSRWPSVTSQEWVFQMLSRQNNYTVNNKRNGVAKVNIFFKELNYKTNSESPSVTMVTLLSNLGSQWSLWFGSSVLSVVEMAELVFDLLVIMFLMLLRRFRSRYWSPGRGGRGAQEVASTLASSPPSHFCPHPMSLSLSQPGPAPSPALTAPPPAYATLGPRPSPGGSAGASSSTCPLGGP
chain 2: MHVKKYLLKGLHRLQKGPGYTYKELLVWYCDNTNTHGPKRIICEGPKKKAMWFLLTLLFAALVCWQWGIFIRTYLSWEVSVSLSVGFKTMDFPAVTICNASPFKYSKIKHLLKDLDELMEAVLERILAPELSHANATRNLNFSIWNHTPLVLIDERNPHHPMVLDLFGDNHNGLTSSSASEKICNAHGCKMAMRLCSLNRTQCTFRNFTSATQALTEWYILQATNIFAQVPQQELVEMSYPGEQMILACLFGAEPCNYRNFTSIFYPHYGNCYIFNWGMTEKALPSANPGTEFGLKLILDIGQEDYVPFLASTAGVRLMLHEQRSYPFIRDEGIYAMSGTETSIGVLVDKLQRMGEPYSPCTVNGSEVPVQNFYSDYNTTYSIQACLRSCFQDHMIRNCNCGHYLYPLPRGEKYCNNRDFPDWAHCYSDLQMSVAQRETCIGMCKESCNDTQYKMTISMADWPSEASEDWIFHVLSQERDQSTNITLSRKGIVKLNIYFQEFNYRTIEESAANNIVWLLSNLGGQFGFWMGGSVLCLIEFGEIIIDFVWITIIKLVALAKSLRQRRAQASYAGPPPTVAELVEAHTNFGFQPDTAPRSPNTGPYPSEQALPIPGTPPPNYDSLRLQPLDVIESDSEGDAI
chain 3: MAPGEKIKAKIKKNLPVTGPQAPTIKELMRWYCLNTNTHGCRRIVVSRGRLRRLLWIGFTLTAVALILWQCALLVFSFYTVSVSIKVHFRKLDFPAVTICNINPYKYSTVRHLLADLEQETREALKSLYGFPESRKRREAESWNSVSEGKQPRFSHRIPLLIFDQDEKGKARDFFTGRKRKVGGSIIHKASNVMHIESKQVVGFQLCSNDTSDCATYTFSSGINAIQEWYKLHYMNIMAQVPLEKKINMSYSAEELLVTCFFDGVSCDARNFTLFHHPMHGNCYTFNNRENETILSTSMGGSEYGLQVILYINEEEYNPFLVSSTGAKVIIHRQDEYPFVEDVGTEIETAMVTSIGMHLTESFKLSEPYSQCTEDGSDVPIRNIYNAAYSLQICLHSCFQTKMVEKCGCAQYSQPLPPAANYCNYQQHPNWMYCYYQLHRAFVQEELGCQSVCKEACSFKEWTLTTSLAQWPSVVSEKWLLPVLTWDQGRQVNKKLNKTDLAKLLIFYKDLNQRSIMESPANSIEMLLSNFGGQLGLWMSCSVVCVIEIIEVFFIDFFSIIARRQWQKAKEWWAWKQAPPCPEAPRSPQGQDNPALDIDDDLPTFNSALHLPPALGTQVPGTPPPKYNTLRLERAFSNQLTDTQMLDEL
notes: ENaC alpha subunit; ENaC beta subunit; ENaC gamma subunit; The trypsin treatment may also cut the subunits themselves; also called αβγ ENaC; source: HEK293S GnTI- cells, baculovirus, purified (GFP nanobody resin, eluted with trypsin, SEC) as described for ENaC δβγ; copies: + +
On to B1, for which the “percent of total NEDD4-2 bound at a 1:5 NEDD4-2:ENaC αβγ ratio” value was about 20%.
